In the supplement of paper PMC9112550, “Optimization of the antimicrobial peptide Bac7 by deep mutational scanning” (BMC Biology, 2022):

Test system: Escherichia coli TOP10
Assay: shrunken log2 fold change of peptide-encoding DNA abundance (4.5 h post-induction vs induction); higher = less antimicrobial activity (less host growth inhibition)
Conditions: time post-induction: 4.5 h; library: site-saturation at positions 5, 18, 19, 20
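Note: peptides expressed intracellularly from a pBAD plasmid library in pooled LB shake-flask culture, induced with 0.3% L-arabinose, DNA abundance read by NGS, three biological replicates, DESeq2 with apeglm shrinkage.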

Sequence | shrunken log2 fold change
RRIRARPPRLPRPRPRPAAVPRP | 0.8
RRIRARPPRLPRPRPRPAAYPRP | 0.412
RRIRARPPRLPRPRPRPACVPRP | 0.707
RRIRARPPRLPRPRPRPAFWPRP | 0.673
RRIRARPPRLPRPRPRPAHFPRP | 0.25
RRIRARPPRLPRPRPRPAHHPRP | 0.123
RRIRARPPRLPRPRPRPAIDPRP | 0.387
RRIRARPPRLPRPRPRPAISPRP | 0.594
RRIRARPPRLPRPRPRPAKWPRP | 0.273
RRIRARPPRLPRPRPRPAKYPRP | -0.156
RRIRARPPRLPRPRPRPANQPRP | 0.0465
RRIRARPPRLPRPRPRPAPDPRP | 0.93
RRIRARPPRLPRPRPRPAPKPRP | 1
RRIRARPPRLPRPRPRPAPQPRP | 0.932
RRIRARPPRLPRPRPRPAQKPRP | 0.0505
RRIRARPPRLPRPRPRPAQRPRP | 0.695
RRIRARPPRLPRPRPRPATVPRP | 0.214
RRIRARPPRLPRPRPRPAVYPRP | -0.079
RRIRARPPRLPRPRPRPAWCPRP | 1.28
RRIRARPPRLPRPRPRPAWPPRP | 0.582
RRIRARPPRLPRPRPRPCADPRP | 0.734
RRIRARPPRLPRPRPRPCATPRP | 1.06
RRIRARPPRLPRPRPRPCAVPRP | 0.365
RRIRARPPRLPRPRPRPCCKPRP | -0.12
RRIRARPPRLPRPRPRPCCPPRP | -0.273
RRIRARPPRLPRPRPRPCDEPRP | 0.085
RRIRARPPRLPRPRPRPCEDPRP | 0.693

Sequence | shrunken log2 fold change
RRIRARPPRLPRPRPRPCERPRP | -0.00198
RRIRARPPRLPRPRPRPCFWPRP | 0.364
RRIRARPPRLPRPRPRPCHWPRP | -0.153
RRIRARPPRLPRPRPRPCKKPRP | -0.0968
RRIRARPPRLPRPRPRPCKLPRP | -0.693
RRIRARPPRLPRPRPRPCMGPRP | 0.00996
RRIRARPPRLPRPRPRPCNEPRP | -0.0554
RRIRARPPRLPRPRPRPCPRPRP | 0.898
RRIRARPPRLPRPRPRPCREPRP | 0.0197
RRIRARPPRLPRPRPRPCRYPRP | -0.215
RRIRARPPRLPRPRPRPCSWPRP | 0.0664
RRIRARPPRLPRPRPRPCTDPRP | -0.0325
RRIRARPPRLPRPRPRPCTGPRP | -0.041
RRIRARPPRLPRPRPRPCVIPRP | 0.158
RRIRARPPRLPRPRPRPCVKPRP | 0.069
RRIRARPPRLPRPRPRPCWQPRP | 0.096
RRIRARPPRLPRPRPRPDAWPRP | 1.05
RRIRARPPRLPRPRPRPDCGPRP | 0.966
RRIRARPPRLPRPRPRPDDCPRP | 0.167
RRIRARPPRLPRPRPRPDEAPRP | 1.12
RRIRARPPRLPRPRPRPDENPRP | 1.2
RRIRARPPRLPRPRPRPDEQPRP | 0.0992
RRIRARPPRLPRPRPRPDFNPRP | 0.0591
RRIRARPPRLPRPRPRPDGTPRP | 0.288
RRIRARPPRLPRPRPRPDHEPRP | -0.0137
RRIRARPPRLPRPRPRPDKDPRP | 0.083
RRIRARPPRLPRPRPRPDLDPRP | 0.515
